The data set deals with the molecule itself. Kind of data set: SEC + other: Western blot; HPLC-SEC: 50 uL of purified protein at 0.5 mg/mL on TSKgel 3000SWXL, 0.8 mL/min, PBS + 200 mM NaCl (pH 7.3), gel filtration standard for apparent molecular weight; Western blot conditions not told.

B1: human IL-22 (hIL-22) (ligand, UniProt Q9GZX6 34-179, looked up)
chain: APISSHCRLDKSNFQQPYITNRTFMLAKEASLADNNTDVRLIGEKLFHGVSMSERCYLMKQVLNFTLEEVLFPQSDRFQPYMQEVVPFLARLSNRLSTCHIEGDDLHIQRNVQKLKDTVKKLGESGEIKAIGELDLLFMSLRNACI
notes: interleukin-22, human; codon optimised; the IL-22 stretch is then probably the mature protein; also called native hIL-22; native human IL-22; source: CHO-S, transiently transfected, secreted, purified (HisTrap Excel, HiTrap Q flow-through)
Turning to B1, the “stoichiometry N” value is 2.

B2: hIL-22-GLP1 (human IL-22 fused to a GLP1 receptor binding protein) (other)
chain: B1 chain
Turning to B2, the “stoichiometry N” value stood at 2.

For the origin of these results see article PMC11137118, “Liver and pancreatic-targeted interleukin-22 as a therapeutic for metabolic dysfunction-associated steatohepatitis” (Nature Communications, 2024).
